Marks after values point to notes of the source that are not given here.
Legend:
Format in all cases: cell-based
Jurkat = assay: Apoptosis of cell lines: Jurkat; conditions: 21 hrs
From the text: (§1) The following cell lines representing various leukaemia's and lymphoma's, as classified by ATCC (www.atcc.org/), were used: Jurkat—acute T-cell leukaemia; CCRF-SB—B-cell acute lymphoblastic leukaemia; MC116—B-cell undifferentiated lymphoma; Raji, Ramos—Burkitt lymphoma (rare form of B-cell non-Hodgkin lymphoma); SU-DHL-4, SU-DHL-5, SU-DHL-8, NU-DUL-1, OCI-Ly3—Diffuse large B-cell lymphoma; THP-1—acute monocytic leukaemia; and Dakiki—B cell nasopharyngeal carcinoma.
(§2) Prior to an assay being performed, 1 vial of each of the above cell lines was thawed in a 37° C. water bath and then added to 20 ml complete media (RPMI 1640+2 mM GlutaMAX+1% Pen/Strep, all previous supplied by Invitrogen, +10% Fetal Bovine Serum (FBS), Sigma Aldrich). Cells were spun (500 g, 5 min, at RT) and re-suspended in 20 ml complete media to wash and spun again. Cells were resuspended in 10 ml complete media and then counted using a ChemoMetec NucleoCounter NC-3000. 6×10^6 cells of each cell line were spun (500 g, 5 min, at RT) and re-suspended in 4.8 ml complete media. 1×10^5 cells in 80 μl were then added to each well of a Corning Costar 96-well, cell culture treated, U-shaped-bottom microplate (cat no. 07-200-95). The plate was rested in a 37° C., 5% CO2 incubator for 2 hrs
(§3) Stocks of 4133-6294 BYbe and NegCtrl BYbe at 2500 nM in complete media were prepared. In a Greiner 96-well non-binding microplate, both reagents were serially diluted in complete media 1 in 5, seven times to produce to form an 8-point dose curve. […] (final well concentrations 500-0.0064 nM) was added to the cells. Each concentration was produced in triplicate. Camptothecin (cat no. C9911-100MG, Sigma Aldrich) and Staurosporine (cat no. 56942-200UL, Sigma Aldrich) were added as positive controls of apoptosis. Both were diluted in complete media and added to the well to produce a final concentration of 5 μM. Additional positive controls included anti-thymocyte globulin (ATG, indicated by FDA for use in conditioning regimens), Rituximab (anti-CD20, indicated by FDA for Non-Hodgkin Lymphoma and Chronic Lymphocytic Leukaemia) and Campath (anti-CD52, indicated by FDA for B-cell Chronic Lymphocytic Leukaemia). Anti-thymocyte globulin, Rituximab and Campath were added to the wells to produce final concentrations of 200 μg/ml, 500 nM and 200 μg/ml, respectively. […]
(§4) Following the incubation, the plates were spun at 500 g, 5 min, RT, the buffer was aspirated with a BioTek ELx405 microplate washer, and the cells were re-suspended in FACS buffer (PBS+1% bovine serum albumin (BSA)+0.1% NaN3+2 mM EDTA, Sigma Aldrich) to wash and then re-spun and buffer was aspirated to leave the cells in 20 μl residual media. […] Cells were analysed using the Bio-Rad ZE5 Cell Analyzer. […]

MC116 = assay: Apoptosis of cell lines: MC116; conditions: MC116, 21 hrs
From the text: as §1, §2, §3, §4

Raji = assay: Apoptosis of cell lines: Raji; conditions: 21 hrs
From the text: as §1, §2, §3, §4

Ramos = assay: Apoptosis of cell lines: Ramos; conditions: 21 hrs
From the text: as §1, §2, §3, §4

SU-DHL-5 = assay: Apoptosis of cell lines: SU-DHL-5; conditions: SU-DHL-5, 21 hrs
From the text: as §1, §2, §3, §4

SU-DHL-8 = assay: Apoptosis of cell lines: SU-DHL-8; conditions: SU-DHL-8, 21 hrs
From the text: as §1, §2, §3, §4

Dakiki = assay: Apoptosis of cell lines: Dakiki; conditions: 21 hrs
From the text: as §1, §2, §3, §4

## Campath: anti-CD52, clinical grade, indicated by FDA for B-cell Chronic Lymphocytic Leukaemia; positive control [reference compound]
Jurkat; 200 μg/ml
  Campath mean (%) cell reduction: 5.64%
MC116; 200 μg/ml
  Campath mean (%) cell reduction: 70.24%
Raji; 200 μg/ml
  Campath mean (%) cell reduction: 36.00%
Ramos; 200 μg/ml
  Campath mean (%) cell reduction: 39.40%
SU-DHL-5; 200 μg/ml
  Campath mean (%) cell reduction: 26.74%
SU-DHL-8; 200 μg/ml
  Campath mean (%) cell reduction: 7.97%
Dakiki; 200 μg/ml
  Campath mean (%) cell reduction: 8.83%

B1: 4133-6294 BYbe: anti-CD45 BYbe (Fab-scFv): 4133 Fab HC-G4S linker-6294 scFv heavy chain paired with 4133 light chain (antibody)
heavy: QEQLVESGGGLVQPEGSLTLTCTASGFSFSGNYYMCWVRQAPGKGLEWIGCLYTGSSGSTYYASWAKGRFTISKTSSTTVTLQMTSLTAADTATYFCARDLGYEIDGYGGLWGQGTLVTVSSGQPKAPSVFPLAPCCGDTPSSTVTLGCLVKGYLPEPVTVTWNSGTLTNGVRTFPSVRQSSGLYSLSSVVSVTSSSQPVTCNVAHPATNTKVDKTVAPSTCSKPGGGGSGGGGSEVQLVESGAELARPGASVKMSCKASGYTFTSYTMHWVKQRPGQCLEWIGYINPSSGYTEYNQKFKDKTTLTADKSSSTAYLQLSSLTSEDSAVYYCARVGDGFYPSWLAYWGQGTLVTVSSGGGGSGGGGSGGGGSGGGGSDIQMTQSPKFLLVSAGDRVTITCKASQSVRNDVAWYQQKPGQSPKLLIFYASKRYTGVPDRFTGSGYGTDFTFTISTVQAEDLAVYFCQQDYSSPTTFGCGTKLEIK
light: AQVLTQTPSPVSAVVGGTVSISCQASQSVYNNNNLSWYQQKPGQPPKLLIYDASKLASGVPSRFKGSGSGTQFTLTISGVQCDDAATYYCLGGYYSSGWYFAFGGGTKVVVKRTPVAPTVLIFPPAADQVATGTVTIVCVANKYFPDVTVTWEVDGTTQTTGIENSKTPQNSADCTYNLSSTLTLTSTQYNSHKEYTCKVTQGTTSVVQSFNRGDC
Jurkat
  Bottom (%) level of % cell reduction: 23.49%
  Top (%) level of % cell reduction: 99.27%
MC116
  Top (%) level of % cell reduction: 99.45%
MC116; calculated bottom of non-sigmoidal curve
  Bottom (%) level of % cell reduction: −65.46* %
Raji
  Bottom (%) level of % cell reduction: 13.56%
  Top (%) level of % cell reduction: 74.02%
Ramos
  Bottom (%) level of % cell reduction: 1.61%
  Top (%) level of % cell reduction: 96.11%
SU-DHL-5
  Bottom (%) level of % cell reduction: 43.93%
  Top (%) level of % cell reduction: 91.01%
SU-DHL-8
  Bottom (%) level of % cell reduction: -2.97%
  Top (%) level of % cell reduction: 16.77%
Dakiki
  Bottom (%) level of % cell reduction: 10.88%
  Top (%) level of % cell reduction: 76.37%

— patent publication US20230374148A1, “BINDING MOLECULES THAT MULTIMERISE CD45” (UCB BIOPHARMA SRL, priority 2020, published 2023)
